According to paper PMC10726167:

Target: FIV Pr50^Gag-His6-tagged protein (feline immunodeficiency virus Gag precursor polyprotein) (feline immunodeficiency virus (Petaluma strain 34TF10))
Assay: dynamic light scattering; purified Pr50^Gag in solution, HEPES-KOH buffer (pH 8); hydrodynamic radius from volume and number distribution

Q: For “FIV Pr50^Gag-His6-tagged protein (feline immunodeficiency virus Gag precursor polyprotein) (natural protein)”, which stoichiometry N is on record?
A: 2
